Reference: patent US20090155304A1 (OSEL, published 2009)

Legend:
[1] = target: gp120 of CCR5-tropic HIV-1 BaL (on cell-free virus) (HIV-1 BaL); test: cell-based or functional assay
[2] = target: gp120 of CXCR4-tropic HIV-1 IIIB (on cell-free virus) (HIV-1 IIIB); test: cell-based or functional assay

B1: Lactobacillus-derived full-length APVT-CV-N (P51G) (other)
chain: APVTLGKFSQTCYNSAIQGSVLTSTCERTNGGYNTSSIDLNSVIENVDGSLKWQGSNFIETCRNTQLAGSSELAAECKTRAQQFVSTKINLDDHIANIDGTLKYE
IC50, inhibition of CCR5-tropic HIVBaL infection (MAGI-R5-LTR-beta-gal attachment inhibition assay) [1]: 0.3 nM
IC50, inhibition of CXCR4-tropic HIVIIIB (HeLa-LTR-beta-gal X4-tropic attachment assay) [2]: < 3 nM
